# Measured values: US20020142429
# B1: human eEF-2 kinase glutathione S-transferase fusion protein (protein)
# chain: MADEDLIFRLEGVDGGQSPRAGHDGDSDGDSDDEEGYFICPITDDPSSNQNVNSKVNKYYSNLTKSERYSSSGSPANSFHFKEAWKHAIQKAKHMPDPWAEFHLEDIATERATRHRYNAVTGEWLDDEVLIKMASQPFGRGAMRECFRTKKLSNFLHAQQWKGASNYVAKRYIEPVDRDVYFEDVRLQMEAKLWGEEYNRHKPPKQVDIMQMCIIELKDRPGKPLFHLEHYIEGKYIKYNSNSGFVRDDNIRLTPQAFSHFTFERSGHQLIVVDIQGVGDLYTDPQIHTETGTDFGDGNLGVRGMALFFYSHACNRICESMGLAPFDLSPRERDAVNQNTKLLQSAKTILRGTEEKCGSPQVRTLSGSRPPLLRPLSENSGDENMSDVTFDSLPSSPSSATPHSQKLDHLHWPVFSDLDNMASRDHDHLDNHRESENSGDSGYPSEKRGELDDPEPREHGHSYSNRKYESDEDSLGSSGRVCVEKWNLLNSSRLHLPRASAVALEVQRLNALDLEKKIGKSILGKVHLAMVRYHEGGRFCEKGEEWDQESAVFHLEHAANLGELEAIVGLGLMYSQLPHHILADVSLKETEENKTKGFDYLLKAAEAGDRQSMILVARAFDSGQNLSPDRCQDWLEALHWYNTALEMTDCDEGGEYDGMQDEPRYMMLAREAEMLFTGGYGLEKDPQRSGDLYTQAAEAAMEAMKGRLANQYYQKAEEAWAQMEE
# B2: human eEF-2 kinase thioredoxin fusion protein (protein)
# chain: B1 chain
# B3: recombinant human eEF-2 kinase (expressed in a coupled transcription/translation system) (protein)
# chain: B1 chain
# B4: human eEF-2 kinase 6xHis fusion protein (protein)
# chain: B1 chain
# B5: myosin heavy chain kinase A (MHCK A) from Dictyostelium (protein)
# chain: MFNIKKRKESITGIPPINVNSPQSVPLSGTLQSPLITPNSPNFVSRQCPFKKFGCSSFLVSKAEFDNHLKDDAQFHLQLAVEKFDHQFDLHTQLMAHFTEQMEDQLEKTMKVVRNHTDSLGGNVQTKLDEGIEKCMAFAKKVEQQQQQLAKRLITQQIQEKKSTSSPLVKGGISGGGGSGGDDSFDGANISSMSTSKQELQQELQSLSIKMKKELTELSDELSQKLERSTGNIDIKIKRIEGEVNEKIDKRQLVSTIDDSIGKKTDSIGYTLESSIIKKVEEKEKKKSEQNQLLFDSKIESLKDKIKIIETQQLDTSSEVRKLKLESTSSGNLMAGLNGTSGRPSSSSHFIPSSVSAAANNINKNEIMEEVKKVEEKLQKKIREEIDNTKSELSKVERSVKDNRSEIEGLEKDCKNQFDKQDNKIKQVEDDLKKSDSLLLLMQNNLKKYNEFVDRERDRESERLKLQDSIKRLEQNQKKIEAEIQEGNEQVERVLREEASISPISSVPKSPITTKRSSIILNSPPMTSQQSSPKIQDLLSSSGSSSVSGINISSETGEMGILWEFDPIINKWIRLSMKLKVERKPFAEGALREAYHTVSLGVGTDENYPLGTTTKLFPPIEMISPISKNNEAMTQLKNGTKFVLKLYKKEAEQQASRELYFEDVKMQMVCRDWGNKFNQKKPPKKIEFLMSWVVELIDRSPSSNGQPILCSIEPLLVGEFKKNNSNYGAVLTNRSTPQAFSHFTYELSNKQMIVVDIQGVDDLYTDPQIHTPDGKGFGLGNLGKAGINKFITTHKCNAVCALLDLDVKLGGVLSGNNKKQLQQGTMVMPDILPELMPSDNTIKVGAKQLPKAEFSKKDLKCVSTIQSFRERVNSIAFFDNQKLLCAGYGDGTYRVFDVNDNWKCLYTVNGHRKSIESIACNSNYIFTSSPDNTIKVHIIRSGNTKCIETLVGHTGEVNCVVANEKYLFSCSYDKTIKVWDLSTFKEIKSFEGVHTKYIKTLALSGRYLFSGGNDQIIYVWDTETLSMLFNMQGHEDWVLSLHCTASYLFSTSKDNVIKIWDLSNFSCIDTLKGHWNSVSSCVVKDRYLYSGSEDNSIKVWDLDTLECVYTIPKSHSLGVKCLMVFNNQIISAAFDGSIKVWEWQSK
# B6: recombinant C. elegans eEF-2 kinase (translation products of the mixture of Cefk-1 and Cefk-2) (protein)
# chain: MTIDTTNESDNSPTNSPGLEASARTFSLNASKMVRITDDYADEVFIEQNDVVIEKPRMDPLHVRKLMETWRKAARRARTNYIDPWDEFNIHEYPVQRAKRYRYSAIRKQWTEDIVDVRLHPDSFARGAMRECYRLKKCSKHGTSQDWSSNYVAKRYICQVDRRVLFDDVRLQMDAKLWAEEYNRYNPPKKIDIVQMCVIEMIDVKGSPLYHLEHFIEGKYIKYNSNSGFVSNAARLTPQAFSHFTFERSGHQMMVVDIQGVGDLYTDPQIHTVVGTDYGDGNLGTRGMALFFHSHRCNDICETMDLSNFELSPPEIEATEVAMEVAAKQKKSCIVPPTVFEARRNRISSECVHVEHGISMDQLRKRKTLNQSSTDLSAKSHNEDCVCPECIPVVEQLCEPCSEDEEDEEEDYPRSEKSGNSQKSRRSRMSISTRSSGDESASRPRKCGFVDLNSLRQRHDSFRSSVGTYSMNSSRQTRDTEKDEFWKVLRKQSVPANILSLQLQQMAANLENDEDVPQVTGHQFSVLGQIHIDLSRYHELGRFVEVDSEHKEMLEGSENDARVPIKYDKQSAIFHLDIARKCGILEAVLTSAHIVLGLPHELLKEVTVDDLFPNGFGEQENGIRADKGQKPCDLEEFGSDLMEIAAEMGDKGAMLYMAHAYETGQHLGPNRRTDYKKSIDWYQRVVGFQEEEELDSDCGKTTFSSFAPLTRHEILAKMAEMYKEGGYGLNQDFERAYGLFNEAAEAAMEAMNGKLANKYYEKAEMCGE
# B7: rabbit reticulocyte eEF-2 kinase (protein)
# chain: ADEDLIFRLEGLGGHQSSQTGHDGDSDADSDEEEGYFICPITDDPQSNQNVNSKINNYYSNLTKSERYGSSGSPASSFHFKEAWKHAIEKAKHMPDPWAEFHLEDIATECATRHRYNAVTGEWLQDEVLIKMASQPFGRGAMRECFRTKKLSNFLHAQQWKGASNYVAKRYIESVDRDVYFEDVRLQMEAKLWGEEYNRHKPPKQVDIMQMCIIELTERPGKPLFHLEHYIEGKYIKYNSNSGFVRDDNIRLTPQAFSHFTFERSGHQLIVVDIQGVGDLYTDPQIHTETGTDFGDGNLGVRGMALFFYSHACNRICKSMGLAPFDLSPREQDAVNQNTKLLQSAKTILRGTEEKCGSPRVRTLSGSRPPLLLRLSENSGDENMSDVTFDSLPSSPSSATPHSQKLDHLHWPVFSDLDNMAAREQDHLDNQRDSENSGDSGYPSEKRSELDDPEPREHGHSNGNRRCESDEDSLGSSGRVCVEKWNLLNPSRLHLPRASAVALEVQRLNALDLERKIGKSVLGKVHLAMVRYHEGGRFCDRDEEWDRESAVFHLEHAADLGELEAIVGLGLMYSQLPHHILADVSLKDTKENKTKGFDYLLKAAEAGDRQSMILVARAFDTGQNLSPERSRDWQEALHWYNSALEMTDCDEGGEYDGVQDEPRYTLLAREAEMLFTGGCGLDKDPQRSGDLYTQAAEAAMEAMKGRLANQYYQKAEEAWAQMEE
# Experiments:
# [1] = molecular target: rabbit reticulocyte eEF-2, P55823
# [2] = molecular target: Dictyostelium myosin (myosin heavy chains), P08799
# Dictyostelium myosin (myosin heavy chains), P08799, sequence (P08799 whole entry): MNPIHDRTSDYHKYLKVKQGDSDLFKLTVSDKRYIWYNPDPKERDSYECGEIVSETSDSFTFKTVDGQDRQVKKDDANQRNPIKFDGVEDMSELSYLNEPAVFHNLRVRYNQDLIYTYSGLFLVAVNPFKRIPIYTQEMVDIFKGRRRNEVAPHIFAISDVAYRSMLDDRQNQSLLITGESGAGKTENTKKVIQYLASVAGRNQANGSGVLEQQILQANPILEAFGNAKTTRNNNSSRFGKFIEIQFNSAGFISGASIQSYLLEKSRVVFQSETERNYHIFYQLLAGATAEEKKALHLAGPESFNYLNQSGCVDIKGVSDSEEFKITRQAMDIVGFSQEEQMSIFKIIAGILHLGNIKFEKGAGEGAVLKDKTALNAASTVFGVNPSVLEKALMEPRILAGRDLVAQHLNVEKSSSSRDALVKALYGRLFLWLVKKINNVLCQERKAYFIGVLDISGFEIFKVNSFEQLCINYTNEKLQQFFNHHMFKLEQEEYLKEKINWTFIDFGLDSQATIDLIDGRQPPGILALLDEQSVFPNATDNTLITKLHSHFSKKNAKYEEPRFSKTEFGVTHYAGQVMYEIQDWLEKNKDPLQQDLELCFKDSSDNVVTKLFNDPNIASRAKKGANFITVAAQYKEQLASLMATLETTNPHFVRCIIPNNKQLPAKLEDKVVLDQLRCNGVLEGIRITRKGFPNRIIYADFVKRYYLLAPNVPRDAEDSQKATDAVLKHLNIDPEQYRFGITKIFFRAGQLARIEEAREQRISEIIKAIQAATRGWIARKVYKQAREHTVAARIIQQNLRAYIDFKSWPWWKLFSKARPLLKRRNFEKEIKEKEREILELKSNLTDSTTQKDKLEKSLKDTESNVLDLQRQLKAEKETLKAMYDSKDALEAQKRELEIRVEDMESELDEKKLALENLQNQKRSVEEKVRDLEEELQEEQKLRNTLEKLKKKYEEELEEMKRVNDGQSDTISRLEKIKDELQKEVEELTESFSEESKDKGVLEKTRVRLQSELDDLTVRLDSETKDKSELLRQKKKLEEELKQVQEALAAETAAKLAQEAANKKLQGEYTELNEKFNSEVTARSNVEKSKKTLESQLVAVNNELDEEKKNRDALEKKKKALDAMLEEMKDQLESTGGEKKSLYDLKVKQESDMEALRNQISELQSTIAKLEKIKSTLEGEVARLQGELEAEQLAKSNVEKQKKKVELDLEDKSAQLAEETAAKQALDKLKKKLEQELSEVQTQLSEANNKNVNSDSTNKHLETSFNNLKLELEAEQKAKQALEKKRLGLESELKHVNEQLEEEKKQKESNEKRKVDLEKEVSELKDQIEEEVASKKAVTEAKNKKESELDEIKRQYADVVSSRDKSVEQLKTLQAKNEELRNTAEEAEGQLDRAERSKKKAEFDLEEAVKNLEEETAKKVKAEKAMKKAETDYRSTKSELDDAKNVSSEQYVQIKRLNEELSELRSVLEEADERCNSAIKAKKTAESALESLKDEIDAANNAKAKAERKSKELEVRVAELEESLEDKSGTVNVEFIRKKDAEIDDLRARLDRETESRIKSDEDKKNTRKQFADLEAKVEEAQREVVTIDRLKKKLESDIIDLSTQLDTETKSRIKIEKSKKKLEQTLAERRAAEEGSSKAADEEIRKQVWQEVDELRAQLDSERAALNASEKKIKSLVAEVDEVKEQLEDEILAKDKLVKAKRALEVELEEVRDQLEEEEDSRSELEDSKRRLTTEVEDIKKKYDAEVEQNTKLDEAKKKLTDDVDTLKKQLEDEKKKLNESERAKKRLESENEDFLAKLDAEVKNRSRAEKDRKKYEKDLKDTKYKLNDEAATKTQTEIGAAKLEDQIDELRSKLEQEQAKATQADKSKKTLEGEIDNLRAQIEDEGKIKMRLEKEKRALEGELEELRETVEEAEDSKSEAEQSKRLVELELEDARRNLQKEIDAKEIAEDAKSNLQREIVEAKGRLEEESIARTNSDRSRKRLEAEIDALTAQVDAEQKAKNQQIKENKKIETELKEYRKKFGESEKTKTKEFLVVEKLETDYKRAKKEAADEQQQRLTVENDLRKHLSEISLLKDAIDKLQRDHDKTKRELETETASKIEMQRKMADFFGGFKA
protein,measurement,setting,value
B1,"phosphorylation of eEF-2 and autophosphorylation, dependence on calmodulin",calmodulin,the ability of the recombinant enzyme to phosphorylate eEF-2 and to undergo autophosphorylation are strictly calmodulin-dependent (data not shown)
same,ability to phosphorylate eEF-2,[1],All of the fusion eEF-2 kinase preparations were able to efficiently phosphorylate eEF-2 (data not shown)
same,phosphorylation of eEF-2,[1],the ability of the recombinant enzyme to phosphorylate eEF-2 and to undergo autophosphorylation are strictly calmodulin-dependent (data not shown)
B2,ability to phosphorylate eEF-2,[1],All of the fusion eEF-2 kinase preparations were able to efficiently phosphorylate eEF-2 (data not shown)
B3,eEF-2 kinase activity in the presence and absence of Ca2+ and calmodulin,calmodulin,the recombinant human eEF-2 kinase activity was strictly Ca^2+/calmodulin-dependant
B4,ability to phosphorylate eEF-2,[1],All of the fusion eEF-2 kinase preparations were able to efficiently phosphorylate eEF-2 (data not shown)
B5,"phosphorylation assay (substrate specificity), 10 min",[2],each of these kinases is specific for their respective substrates
same,"phosphorylation assay (substrate specificity), 10 min",[1],MHCK A cannot phosphorylate eEF-2
B6,eEF-2 phosphorylation activity in the presence and absence of Ca2+ and calmodulin,calmodulin,The eEF-2 phosphorylation activity of the recombinant protein is Ca^2+/calmodulin-dependant
same,"eEF-2 kinase activity: phosphorylation of eEF-2 with [gamma-32P]ATP, SDS/PAGE and autoradiography",[1],The translation products of the mixture of Cefk-1 and Cefk-2 are able to phosphorylate eEF-2
B7,"phosphorylation assay (substrate specificity), 10 min",[2],rabbit eEF-2 kinase cannot use myosin heavy chains as a substrate
same,"phosphorylation assay (substrate specificity), 10 min",[1],each of these kinases is specific for their respective substrates
